Values quoted from earlier work in US20060189533A1, “Stable pharmaceutical dosage forms of teriparatide” (Nastech Pharmaceutical Company Inc., priority 2004, published 2006).
Like-named read-outs stand apart in the source and are kept apart here. Where no end group is shown, it is not given here.

Experiments:
[1] = anesthetized rats
[2] = test system: ovariectomized rat; conditions: ovariectomized rat model
[3] = up to 500 μg per day for 7 days; up to 1,000 μg per day for 3 months

In the case of “human growth hormone: protein whose nasal bioavailability is reported to be modestly increased by N-acetyl-L-cysteine”, the nasal bioavailability ([1]; before increase by N-acetyl-L-cysteine) is given as 7.5% and the nasal bioavailability ([1]; with N-acetyl-L-cysteine) is given as 12.2%.
In the case of “hPTH1-31NH2: linear PTH analogue with only AC-stimulating activity, SEQ ID NO: 3 (SVSEIQLMHNLGKHLNSMERVEWLRKKLQDV-NH2; listed as Homo sapiens)”, the “activity in the restoration of bone loss” value [2] is given as “fully active”.
In the case of `CC[C@H](C)[C@H](NC(=O)[C@H](CCC(=O)O)NC(=O)[C@H](CO)NC(=O)[C@@H](NC(=O)[C@@H](N)CO)C(C)C)C(=O)N[C@@H](CCC(N)=O)C(=O)N[C@@H](CC(C)C)C(=O)N[C@@H](CCSC)C(=O)N[C@@H](Cc1cnc[nH]1)C(=O)N[C@@H](CC(N)=O)C(=O)N[C@@H](CC(C)C)C(=O)NCC(=O)N[C@@H](CCCCN)C(=O)N[C@@H](Cc1cnc[nH]1)C(=O)N[C@@H](CC(C)C)C(=O)N[C@@H](CC(N)=O)C(=O)N[C@@H](CO)C(=O)N[C@@H](CCSC)C(=O)N[C@@H](CCC(=O)O)C(=O)N[C@@H](CCCN=C(N)N)C(=O)N[C@H](C(=O)N[C@@H](CCC(=O)O)C(=O)N[C@@H](Cc1c[nH]c2ccccc12)C(=O)N[C@@H](CC(C)C)C(=O)N[C@@H](CCCN=C(N)N)C(=O)N[C@@H](CCCCN)C(=O)N[C@@H](CCCCN)C(=O)N[C@@H](CC(C)C)C(=O)N[C@@H](CCC(N)=O)C(=O)N[C@@H](CC(=O)O)C(=O)N[C@H](C(=O)N[C@@H](Cc1cnc[nH]1)C(=O)N[C@@H](CC(N)=O)C(=O)N[C@@H](Cc1ccccc1)C(=O)O)C(C)C)C(C)C` [Teriparatide], the “safety of the intranasal route” value [3] is given as “no safety concerns were noted”.
